Reference: patent US20030018175A1
Each block holds one molecule with its values, some of them ahead of it.

Molecular target: human alpha-1-antitrypsin (Sigma) (human) (UniProt P01009)
Assay: cell-based or functional assay

Chain of UniProt P01009 (P01009 25-418 limits assumed): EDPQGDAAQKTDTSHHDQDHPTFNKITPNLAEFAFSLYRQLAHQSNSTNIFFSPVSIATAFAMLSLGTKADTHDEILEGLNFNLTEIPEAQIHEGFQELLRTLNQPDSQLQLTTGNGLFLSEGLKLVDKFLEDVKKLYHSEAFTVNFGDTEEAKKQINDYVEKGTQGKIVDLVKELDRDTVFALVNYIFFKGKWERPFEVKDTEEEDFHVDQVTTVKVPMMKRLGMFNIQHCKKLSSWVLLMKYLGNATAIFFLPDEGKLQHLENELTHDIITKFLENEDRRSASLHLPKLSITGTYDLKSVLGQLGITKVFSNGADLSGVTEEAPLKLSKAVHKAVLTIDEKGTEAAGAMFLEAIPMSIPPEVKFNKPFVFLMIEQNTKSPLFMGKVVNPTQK

Molecule: APC conjugate D214N (enzyme)
% residual amidolytic activity, 16.6 µM inhibitor, 20 h at 37 °C: 80%
% residual amidolytic activity, 42.3 µM inhibitor, 20 h at 37 °C: 81%

Molecule: APC conjugate E307N+E309T (enzyme)
% residual amidolytic activity, 16.6 µM inhibitor, 20 h at 37 °C: 10%
% residual amidolytic activity, 42.3 µM inhibitor, 20 h at 37 °C: < 1%

Molecule: APC conjugate K217N+L219T (enzyme)
% residual amidolytic activity, 16.6 µM inhibitor, 20 h at 37 °C: 20%
% residual amidolytic activity, 42.3 µM inhibitor, 20 h at 37 °C: 4%

Molecule: APC conjugate L386N+H388T (enzyme)
% residual amidolytic activity, 16.6 µM inhibitor, 20 h at 37 °C: 68%
% residual amidolytic activity, 42.3 µM inhibitor, 20 h at 37 °C: 44%

Molecule: APC conjugate M338N (enzyme)
% residual amidolytic activity, 16.6 µM inhibitor, 20 h at 37 °C: 38%
% residual amidolytic activity, 42.3 µM inhibitor, 20 h at 37 °C: 12%

Molecule: APC variant D189N+K191N (control) (enzyme)
% residual amidolytic activity, 16.6 µM inhibitor, 20 h at 37 °C: 12%
% residual amidolytic activity, 42.3 µM inhibitor, 20 h at 37 °C: < 1%

Molecule: APC variant D214A (control) (enzyme)
% residual amidolytic activity, 16.6 µM inhibitor, 20 h at 37 °C: 21%
% residual amidolytic activity, 42.3 µM inhibitor, 20 h at 37 °C: 1%

Molecule: APC variant K251N (enzyme)
% residual amidolytic activity, 16.6 µM inhibitor, 20 h at 37 °C: 62%
% residual amidolytic activity, 42.3 µM inhibitor, 20 h at 37 °C: 53%

Molecule: APC variant S190N+K192T (enzyme)
% residual amidolytic activity, 16.6 µM inhibitor, 20 h at 37 °C: 28%
% residual amidolytic activity, 42.3 µM inhibitor, 20 h at 37 °C: 5%

Molecule: APC variant S252N (enzyme)
% residual amidolytic activity, 16.6 µM inhibitor, 20 h at 37 °C: 62%
% residual amidolytic activity, 42.3 µM inhibitor, 20 h at 37 °C: 34%

Molecule: wild-type COS 7 APC (enzyme)
% residual amidolytic activity, 16.6 µM inhibitor, 20 h at 37 °C: 7%
% residual amidolytic activity, 42.3 µM inhibitor, 20 h at 37 °C: < 1%

B1: wild-type plasma APC (enzyme)
chain: ANSFLEELRHSSLERECIEEICDFEEAKEIFQNVDDTLAFWSKHVDGDQCLVLPLEHPCASLCCGHGTCIDGIGSFSCDCRSGWEGRFCQREVSFLNCSLDNGGCTHYCLEEVGWRRCSCAPGYKLGDDLLQCHPAVKFPCGRPWKRMEKKRSHLLIDGKMTRRGDSPWQVVLLDSKKKLACGAVLIHPSWVLTAAHCMDESKKLLVRLGEYDLRRWEKWELDLDIKEVFVHPNYSKSTTDNDIALLHLAQPATLSQTIVPICLPDSGLAERELNQAGQETLVTGWGYHSSREKEAKRNRTFVLNFIKIPVVPHNECSEVMSNMVSENMLCAGILGDRQDACEGDSGGPMVASFHGTWFLVGLVSWGEGCGLLHNYGVYTKVSRYLDWIHGHIRDKEAPQKSWAP
modifications: two chains: light 1-155, heavy 170-419
% residual amidolytic activity, 16.6 µM inhibitor, 20 h at 37 °C: 10%
% residual amidolytic activity, 42.3 µM inhibitor, 20 h at 37 °C: 2%

The next lines start with the values.

% residual amidolytic activity, 16.6 µM inhibitor, 20 h at 37 °C: 90%
% residual amidolytic activity, 42.3 µM inhibitor, 20 h at 37 °C: 77%
Molecule: APC conjugate D189N+K191T (enzyme)

% residual amidolytic activity, 16.6 µM inhibitor, 20 h at 37 °C: 59%
% residual amidolytic activity, 42.3 µM inhibitor, 20 h at 37 °C: 24%
Molecule: APC conjugate K191N+K193T (enzyme)

% residual amidolytic activity, 16.6 µM inhibitor, 20 h at 37 °C: 42%
% residual amidolytic activity, 42.3 µM inhibitor, 20 h at 37 °C: 9%
Molecule: APC conjugate S305N+E307T (enzyme)

% residual amidolytic activity, 16.6 µM inhibitor, 20 h at 37 °C: 72%
% residual amidolytic activity, 42.3 µM inhibitor, 20 h at 37 °C: 40%
Molecule: APC conjugate S336N+M338T (enzyme)

% residual amidolytic activity, 16.6 µM inhibitor, 20 h at 37 °C: 56%
% residual amidolytic activity, 42.3 µM inhibitor, 20 h at 37 °C: 38%
Molecule: APC conjugate T253N+D255T (enzyme)

% residual amidolytic activity, 16.6 µM inhibitor, 20 h at 37 °C: 9%
% residual amidolytic activity, 42.3 µM inhibitor, 20 h at 37 °C: 2%
Molecule: APC variant M338A (control) (enzyme)

% residual amidolytic activity, 16.6 µM inhibitor, 20 h at 37 °C: 50%
% residual amidolytic activity, 42.3 µM inhibitor, 20 h at 37 °C: 30%
Molecule: APC variant Y302N (enzyme)
